{"source": "paper PMC4330386", "about": "(Nucleic Acids Research, 2015)", "binders": {"B1": {"name": "GST-Rad27 (natural protein, yeast, UniProt P26793 1-382, looked up)", "chain": "MGIKGLNAIISEHVPSAIRKSDIKSFFGRKVAIDASMSLYQFLIAVRQQDGGQLTNEAGETTSHLMGMFYRTLRMIDNGIKPCYVFDGKPPDLKSHELTKRSSRRVETEKKLAEATTELEKMKQERRLVKVSKEHNEEAQKLLGLMGIPYIIAPTEAEAQCAELAKKGKVYAAASEDMDTLCYRTPFLLRHLTFSEAKKEPIHEIDTELVLRGLDLTIEQFVDLCIMLGCDYCESIRGVGPVTALKLIKTHGSIEKIVEFIESGESNNTKWKIPEDWPYKQARMLFLDPEVIDGNEINLKWSPPKEKELIEYLCDDKKFSEERVKSGISRLKKGLKSGIQGRLDGFFQVVPKTKEQLAAAAKRAQENKKLNKNKNKVTKGRR"}}, "assay_in_all_cases": "cell-based or functional assay", "key": {"[1]": {"target": "T1, Mus81_(Δ21–22) of Mus81_(Δ21–22)–Mms4_(Δ40N) (S. cerevisiae, UniProt Q04149 1-632, Δ21–22)", "T1 sequence (looked up)": "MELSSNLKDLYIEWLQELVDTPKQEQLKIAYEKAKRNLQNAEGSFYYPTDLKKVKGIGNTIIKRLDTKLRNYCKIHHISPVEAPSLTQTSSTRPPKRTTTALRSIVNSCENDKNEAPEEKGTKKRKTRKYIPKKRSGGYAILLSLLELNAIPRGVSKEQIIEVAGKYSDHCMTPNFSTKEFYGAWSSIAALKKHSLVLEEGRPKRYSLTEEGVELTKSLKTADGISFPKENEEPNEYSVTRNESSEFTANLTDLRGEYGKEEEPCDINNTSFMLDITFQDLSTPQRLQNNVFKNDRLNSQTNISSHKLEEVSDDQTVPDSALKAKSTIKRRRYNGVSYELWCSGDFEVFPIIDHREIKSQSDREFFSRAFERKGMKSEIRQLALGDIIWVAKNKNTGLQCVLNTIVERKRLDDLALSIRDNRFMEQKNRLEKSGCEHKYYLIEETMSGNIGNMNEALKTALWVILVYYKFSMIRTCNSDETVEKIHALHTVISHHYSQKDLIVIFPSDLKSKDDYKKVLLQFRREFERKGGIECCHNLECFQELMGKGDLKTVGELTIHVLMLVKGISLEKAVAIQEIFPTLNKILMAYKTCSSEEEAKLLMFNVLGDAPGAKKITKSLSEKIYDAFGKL"}, "[2]": {"target": "T2, Mus81_(Δ21–24) of Mus81_(Δ21–24)–Mms4_(Δ40N) (S. cerevisiae, UniProt Q04149 1-632, Δ21–24)", "T2 sequence (looked up)": "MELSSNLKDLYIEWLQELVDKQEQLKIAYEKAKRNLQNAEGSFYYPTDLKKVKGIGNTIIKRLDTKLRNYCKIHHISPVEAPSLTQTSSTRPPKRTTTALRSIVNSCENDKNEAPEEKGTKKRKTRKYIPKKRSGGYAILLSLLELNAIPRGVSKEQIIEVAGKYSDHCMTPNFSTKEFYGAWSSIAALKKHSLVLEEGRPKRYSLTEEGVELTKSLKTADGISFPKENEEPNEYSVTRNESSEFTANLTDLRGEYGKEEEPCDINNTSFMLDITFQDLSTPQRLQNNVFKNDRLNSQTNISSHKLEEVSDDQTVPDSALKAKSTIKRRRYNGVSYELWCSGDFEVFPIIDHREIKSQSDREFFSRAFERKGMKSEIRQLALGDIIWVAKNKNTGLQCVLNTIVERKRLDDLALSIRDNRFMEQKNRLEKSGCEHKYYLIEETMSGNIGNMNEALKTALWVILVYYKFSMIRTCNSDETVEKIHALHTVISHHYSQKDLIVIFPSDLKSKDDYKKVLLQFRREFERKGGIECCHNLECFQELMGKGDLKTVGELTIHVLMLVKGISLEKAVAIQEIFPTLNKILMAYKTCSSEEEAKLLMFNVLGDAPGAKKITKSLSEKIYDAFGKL"}, "[3]": {"target": "B1"}}, "data": [{"binder": "B1", "values": [{"measurement": "extent of stimulation by Rad27 of the endonuclease activity of Mus81_(Δ21–22)–Mms4_(Δ40N) on 3′F substrate, over increasing amounts of Rad27 (∼5–12-fold)", "setting": "[1]", "result": "~12", "unit": "fold"}, {"measurement": "extent of stimulation by Rad27 of the endonuclease activity of Mus81_(Δ21–24)–Mms4_(Δ40N) on 3′F substrate, over increasing amounts of Rad27 (∼3–6-fold)", "setting": "[2]", "result": "~6", "unit": "fold"}]}, {"binder": "Mms4 of the wild-type Mus81–Mms4 complex (natural protein, budding yeast, UniProt P38257 1-691, looked up) MSQIVDFVEDKDSRNDASIQIIDGPSNVEIIALSESMDQDECKRAHVSSAEMIPSSPQRKSVSNDVENVDLNKSIELSAPFFQDISISKLDDFSTTVNSIIDSSLRNENNAKGNAKKLLDDLISDEWSADLESSGKKHNKSQYNLRDIAEKWGVQSLKNPEPIAVDCEYKTQGIGKTNSDISDSPKSQIGAADILFDFPLSPVKHENPTEEKHNSIANENSSPDNSLKPAGKQNHGEDGTSMAKRVYNKGEDEQEHLPKGKKRTIALSRTLINSTKLPDTVELNLSKFLDSSDSITTDVLSTPAKGSNIVRTGSQPIFSNANCFQEAKRSKTLTAEDPKCTKNTAREVSQLENYIAYGQYYTREDSKNKIRHLLKENKNAFKRVNQIYRDNIKARSQMIIEFSPSLLQLFKKGDSDLQQQLAPAVVQSSYNDSMPLLRFLRKCDSIYDFSNDFYYPCDPKIVEENVLILYYDAQEFFEQYTSQKKELYRKIRFFSKNGKHVILILSDINKLKRAIFQLENEKYKARVEQRLSGTEEALRPRSKKSSQVGKLGIKKFDLEQRLRFIDREWHVKIHTVNSHMEFINSLPNLVSLIGKQRMDPAIRYMKYAHLNVKSAQDSTETLKKTFHQIGRMPEMKANNVVSLYPSFQSLLEDIEKGRLQSDNEGKYLMTEAVEKRLYKLFTCTDPNDTIE", "values": [{"measurement": "stimulation of Rad27 (0.1 fmol) cleavage of 5′DF substrate by the Mus81–Mms4 complex (0, 25, 50 fmol; ∼2–4 fold told of the Mus81 complexes)", "setting": "[3]", "result": "2 to 4", "unit": "fold"}]}, {"binder": "Mms4_(Δ40N) (domain or fragment, budding yeast, UniProt P38257 41-691, looked up) ECKRAHVSSAEMIPSSPQRKSVSNDVENVDLNKSIELSAPFFQDISISKLDDFSTTVNSIIDSSLRNENNAKGNAKKLLDDLISDEWSADLESSGKKHNKSQYNLRDIAEKWGVQSLKNPEPIAVDCEYKTQGIGKTNSDISDSPKSQIGAADILFDFPLSPVKHENPTEEKHNSIANENSSPDNSLKPAGKQNHGEDGTSMAKRVYNKGEDEQEHLPKGKKRTIALSRTLINSTKLPDTVELNLSKFLDSSDSITTDVLSTPAKGSNIVRTGSQPIFSNANCFQEAKRSKTLTAEDPKCTKNTAREVSQLENYIAYGQYYTREDSKNKIRHLLKENKNAFKRVNQIYRDNIKARSQMIIEFSPSLLQLFKKGDSDLQQQLAPAVVQSSYNDSMPLLRFLRKCDSIYDFSNDFYYPCDPKIVEENVLILYYDAQEFFEQYTSQKKELYRKIRFFSKNGKHVILILSDINKLKRAIFQLENEKYKARVEQRLSGTEEALRPRSKKSSQVGKLGIKKFDLEQRLRFIDREWHVKIHTVNSHMEFINSLPNLVSLIGKQRMDPAIRYMKYAHLNVKSAQDSTETLKKTFHQIGRMPEMKANNVVSLYPSFQSLLEDIEKGRLQSDNEGKYLMTEAVEKRLYKLFTCTDPNDTIE", "values": [{"measurement": "stimulation of Rad27 (0.1 fmol) cleavage of 5′DF substrate by the Mus81–Mms4_(Δ40N) and Mus81_(Δ120N)–Mms4_(Δ40N) complexes (0, 25, 50 fmol; ∼2–4 fold told of the Mus81 complexes)", "setting": "[3]", "result": "2 to 4", "unit": "fold"}]}]}
